Measured values published in US20240425607A1 (COMPUGEN, published 2024).

Experiments:
[1] = molecular target: T1, cynomolgus monkey IL-18BP (construct not stated) (cynomolgus monkey); assay: KinExA (figure legend; the text prints 208 fM)
T1 construct: also called cyno IL18BP; cyno IL-18BP

[2] = molecular target: T1, cynomolgus monkey IL-18BP (construct …); assay: KinExA, solution equilibrium
[3] = molecular target: T2, human IL-18BP (recombinant, construct not stated) (human, UniProt O95998 31-194); assay: KinExA, solution equilibrium
T2 construct: also called hIL-18BP; human monomeric IL18BP
T2 sequence: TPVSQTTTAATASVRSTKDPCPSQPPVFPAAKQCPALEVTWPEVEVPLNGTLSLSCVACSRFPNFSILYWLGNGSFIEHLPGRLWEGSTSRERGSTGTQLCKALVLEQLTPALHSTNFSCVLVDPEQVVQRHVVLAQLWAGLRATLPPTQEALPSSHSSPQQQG

mouse IL18-BP-Fc = molecular target: T3, mouse IL18-BP-Fc (mouse, UniProt Q9Z0M9 29-193, limits assumed); assay: Biacore T100; mouse IL18BP-Fc captured on anti-human Fc, Fab 300-2.21 nM in solution
T3 construct: R&D cat; 122-BP is named for the AbD35328 SPR; also called mouse IL18-BP-Fc (cat. 122-BP, R&D); mouse IL18-BP Fc fusion protein
T3 sequence (looked up): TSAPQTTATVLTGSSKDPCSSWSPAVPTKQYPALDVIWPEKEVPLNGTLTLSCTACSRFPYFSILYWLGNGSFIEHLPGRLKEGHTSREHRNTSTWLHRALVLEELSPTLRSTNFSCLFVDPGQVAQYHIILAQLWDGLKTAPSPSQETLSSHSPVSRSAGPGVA

[4] = molecular target: T4, mouse IL-18BP (construct not stated) (mouse, UniProt Q9Z0M9 29-193, limits assumed); assay: KinExA, solution equilibrium
T4 construct: also called mIL18-BP
T4 sequence (looked up): T3 sequence (looked up)

B1: ADI-71739 (antibody, V domains shown)
VH: QLQLQESGPGLVKPSETLSLTCTVSGGSISSPDYPWGWIRQPPGKGLEWIGSIYYQGATYYNPSLKSRVTISVDTSKNQFSLKLSSVTAADTAVYYCARGPYRQLFDYWGQGTLVTVSS
VL: DIQMTQSPSSVSASVGDRVTITCRASQGISSWLAWYQQKPGKAPKLLIYAASSLQSGVPSRFSGSGSGTDFTLTISSLQPEDFATYYCQQGSVFPYTFGGGTKVEIK
- Kd [1]: 0.209 pM
- Kd [2]: ~0.208 pM
- Kd [3]: ~0.291 pM

B2: ADI-71739 Fab fragment (Fab, V domains shown)
VH: B1 VH
VL: B1 VL
notes: Used for the Biacore measurement on mouse IL18BP-Fc; also called anti-IL18BP Fab
- Kd (mouse IL18-BP-Fc): ~4000 pM

B3: mouse IL-18 (ligand, UniProt P70380 36-192, looked up)
chain: NFGRLHCTTAVIRNINDQVLFVDKRQPVFEDMTDIDQSASEPQTRLIIYMYKDSEVRGLAVTLSVKDSKMSTLSCKNKIISFEEMDPPENIDDIQSDLIFFQKRVPGHNKMEFESSLYEGHFLACQKEDDAFKLILKKKDENGDKSVMFTLTNLHQS
notes: also called mIL-18; mouse IL-18 biotinylated (Sino Biological)
- Kd [4]: ~3.7 pM
